Data reported in the DeepSol protein solubility set.

Assay: soluble on expression in E. coli; label from the status in PepcDB or PDB records

Sequence | soluble on expression in E. coli
MAHHHHHHMLYLKEIELGNYYICNLNDYPSEHCVVDYDPNKRIKFLCPIVHNEGEHMNTYNSSYCFTYEGIKDRLIIRNNEEPIYTTLPGIILENQILYDRYNLGIYIMPFKLEADMSIVCVCDTKKEYKGITPYIKINIKNSNNVLGVGSSDEYIKGCDFGNNKGKHQFLTSPQSHEHRSVCAILANPGDIVGINCINYNEDDPQNNDVTLEPSNCFSTVSFSLYTFSFVKMNINNILPDAKYYPETSAFPKDPNFKKFSTTSYLWIPANVPQAFFLVCSCKYAKGEGTAMYHVSSSTLEV | not soluble
LQMTQSPSFLSASVGDRVSITCRASQDIQKFLAWYQLTPGDAPKLLMYSASTLQSGVPSRFSGSGSGTEFTLTISGLQPEDFATYYCQHLKRYPYTFGQGTKLEISRTVAAPSVFIFPPSDEQLKSGTASVVCLLNNFYPREAKVQWKVDNALQSGNSQESVTEQDNKDSTYSLSSTLTLSKADYEKHKVYACEVTHQGLSSPVTKSFNRGEC | soluble
HHHHHHMAEKKQWHETLHDQFGQYFAVDNVLYHEKTDHQDLIIFENAAFGRVMALDGVVQTTERDEFIYHEMMTHVPLLAHGHAKHVLIIGGGDGAMLREVTRHKNVESITMVEIDAGVVSFCRQYLPNHNAGSYDDPRFKLVIDDGVNFVNQTSQTFDVIISDCTDPIGPGESLFTSAFYEGCKRCLNPGGIFVAQNGVCFLQQEEAIDSHRKLSHYFSDVGFYQAAIPTYYGGIMTFAWATDNDALRHLSTEIIQARFLASGLKCRYYNPAIHTAAFALPQYLQDALASQPS | soluble
MASSYSASAEPARVRALVYGHHGDPAKVVELKNLELAAVRGSDVRVKMLAAPINPSDINMIQGNYGLLPELPAVGGNEGVAQVVAVGSNVTGLKPGDWVIPANAGLGTWRTEAVFSEEALIQVPSDIPLQSAATLGVNPCTAYRMLMDFEQLQPGDSVIQNASNSGVGQAVIQIAAALGLRTINVVRDRPDIQKLSDRLKSLGAEHVITEEELRRPEMKNFFKDMPQPRLALNCVGGKSSTELLRQLARGGTMVTYGGMAKQPVVASVSLLIFKDLKLRGFWLSQWKKDHSPDQFKELILTLCDLIRRGQLTAPACSQVPLQDYQSALEASMKPFISSKQILTM | soluble
MSLNEETRKKKKRPSLTTLYEGTMKEITSNENRYIEFLNFASRVHKYSFDEQLLLYAQKQDVHMVATFDIWKKLGRFVKRGSTAALLFDYTTQQRKYVFDISETGGEPLQVFDWQLLDNDKNDLLRYWNTYEKQSGTLVNWEDGIHAKIASYQKPIGDQIHPFFVKDIEVVAAYIIYQRTNTLIPEDLLLDVQSVLQIGKRDNTLLEIQHFANLTAKEFLQDVERILNNELKKERVLYHDRIKFEDELSRREWQPASRDREGHHHHHH | not soluble
MNTICKMRDIYKALSIFETAFEEVYGISLNEAMVLCALREAGKEITSTAIAERTEMAPSHTSKVIRAVEDKGLIRRALGEVDKRQMYFSLTEAGKKRLNELDLDKVEIPEMLKPLI | not soluble
MAHHHHHHMHLLHDFKNIYCLLPSDYKNFLQKIRTLPCSVNKNMQGEKEIYILKKYMKMLNYEFITFIHGPYVLHICDPFYKIYLEWENGWKLYPLYQQNAERHFRENKITHLRKEGFSEILICHDAFANCPSDEEKMNYLSSVLQRTKFSKCSSIICGPAAIAPPPVVSPDIYL | not soluble
MGSDKIHHHHHHMIDKLEFFIALARAQHFGRAAEECGISQPTLSAAIRQLEDQLGVILVQRGSRFQGLTPEGQRVLEWARRIVGDARTMREEMRAARNGLAGHIRLAVIPTALAMVQRLTEPFQAHHPAVTFQVVSRNSLQVLSLLENLEIDAGITYLDNEPLGRVTSVPLYAERYHLIAATGTPLADRESVTWREVSDLRLCLLTADMQNRRIINQHFTEAGVVPRPTLESNSMIVLFSHIRTGQWSSIMPRNVAESFGFPEEIRMVPIVEPQAQHLVGLVATHREPYTPLVSALLHEARRLAAAQVFDRFFLSRNNTAVLT | not soluble
MQFDNIDSALMALKNGETIIVVDDENRENEGDLVAVTEWMNDNTINFMAKEARGLICAPVSKDIAQRLDLVQMVDDNSDIFGTQFTVSIDHVDTTTGISAYERTLTAKKLIDPSSEAKDFNRPGHLFPLVAQDKGVLARNGHTEAAVDLAKLTGAKPAGVICEIMNDDGTMAKGQDLQKFKEKHQLKMITIDDLIEYRKKLEPEIEFKAKVKMPTDFGTFDMYGFKATYTDEEIVVLTKGAIRQHENVRLHSACLTGDIFHSQRCDCGAQLESSMKYINEHGGMIIYLPQEGRGIGLLNKLRAYELIEQGYDTVTANLALGFDEDLRDYHIAAQILKYFNIEHINLLSNNPSKFEGLKQYGIDIAERIEVIVPETVHNHDYMETKKIKMGHLIMAGDPLEHHHHHH | not soluble
MSIESIRNVIAKDMGEVDNVIQQKLHSQVALVRQVSEYIIHSGGKRLRPALVILAAGLFDYKGLHHHNLAAVVEFIHTATLLHDDVVDESELRRNQATANALFGNAASVLVGDFLYSRAFQMMVEVGNMRVMEVLADATNTIAEGEVLQLLNCRDPDVEEENYLQVIRFKTAKLFEAAARLGAILGGATPAEEEALAAYGMHLGTAFQLVDDLLDYSGNDQDTGKNLGDDLAEGKPTLPLIFAMRSGIPEQVDTVRHAIETGGKDGFEPILKIIQESGALDYAKQCAQNEANMAISAITAIRDSIYKQCLLELAEFAITRNY | not soluble
MGSDKIHHHHHHMKTCWQILEIESTTQIDIIRQAYLARLPLCHPETDPQGFKALRQAYEEALRLAVNPVEEADDEEKDATAEHEILRAFRTLLDSESDRFQPSAWQKFIQQLNTWNMEDVDQLRWPLCAIAIEARYLSLNCASLLAERLNWHSFNDSEGMDEEEREAFLEAIQAGDCFDFLSLLEYPVALQNQTVEYYFALERCCRYHPDYVTAFLAMEGPWFIPDDAKLHRKLLRWYSSVQTGMVELIPVAKQWQAEEPESEDARYYQCAQRLYCGEGESLLADLGAYWESYPSTQADNLLLQWSKRHCPDYFALLVMVIEARSMVDAQGQPLKYVPGESARTRLLWAEILHSGKLSPLGQSFIESLFFKRKAWAWWKSRVGSETEEDSPLLDLYRVAEQVVLEAFPKQEMLARLNTRLEGGDAHPLEAIITRMLLTKVKLEPEDEDVDEPTPENHEEKNDEGEKPQSITSIIKISLTVLVIGYALGKIAMLFS | not soluble
MGHHHHHHSHMGARMTRAFRNFNVEKRAEQEISKRKPSMAPKHPSTRSLLQEHLSQYPEIEEEVSRKDNKLLSLLRDVYVNSKDPVPSLPVKAIEPQQQPKEFRLPIGDQFDKNIKDIPKGKITVVEALTLLNNHKLSPETWTAEKIAQEYHLELEDVNSLLKYFVTFEVKIVPPEDRKAIQSK | not soluble
MGSDKIHHHHHHMSNESCKDGKIWAYLKNINVYIDQNKILSDINLNLRYGENILILGPNGSGKSTFLKLLNRSIYPITTKDSSFKLFNKENINIWDLRKKIGFLFKEMEQRVNNGVTLYDVISSGFSGIFNSKYTNLLSESKKIKINNLINTWELGDIIYNEFQTLSDGQKRRALLARALVYEPNILVLDEPFCNLDLKSNIILNQNLNELIKHSVNLIYVTHNVESILPKTNRVILIKEGKILNDGSPSELINTKTLSDLFNISIKVIEQEGYWRMIPLSS | not soluble
MGSDKIHHHHHHMRTVLYDEHAKLNAKFTEFNGWDMPLYYRSIIEEHMAVRKHVGIFDVSHMGDVTVSGKDASAFLDHMFPTKVSNLKNGECVYTAFLNDSGLMIDDTIVYRMGEDSYFFVPNAGTTEKIYRWVSDHSAGYSVKIENVSNRISSIALQGPESEEVLNELGFSYPGYFKFQYVSGKYMNAITGKDQIIISGTGYTGEKGVEFIIPNEHAVELWKKLLEAINKRNGLPAGLGARDTLRMEKGMLLSGHDFNEDRDPYEASVSFIVNNDEDFVGKKNLEIRRRSDHEIFRGFVLSDGIPRNGNPIKAGGKRVGTVTSGTISPVLNKGIALGYIDKAYSKENTEVMIEIRSVDHKAVVTKPRIVK | not soluble
MLNTSDIGKVFPSVTAVVEKGRLRFFAKAIGENNPIYTDEAAAKDAGYESLPMPPTFFFSLKMDVPNPFENYEKVGASLAKILHANQAFVYHQSVVAGDSLTFESHIADIYDKKAGALEFLVEKTKVSNQRGQHVADMTTTLVVRNLEHHHHHH | not soluble
MSLVPRVMSTQHPDNARIPFFAASEVLNGEDEVREAYYVFSHFKCDEQMWDFEGKEADAHIVRKLLSSYYDFFSSRPLGKDFRLTMRVPNPEIEKGEAKLLAETLEMIPRSYDYVRSLGIEHPPIFEVILPMTRSAEEVMKVHAFYRDFVAGKGRFELLGEKVSDWLGDFLPEEIKVIPLFEDRDSLMRAAEISERYAEWAELDELRVFLARSDPAMNYGFVAATIYVKKALYDLSQLGISTYPILGVGSCPFRGGFSPKNLSVLDEFPSVYTFTVQSAFKYDYEFGDVRRAIKRAKEAARRKSDYVDEEHLQVAEKLKDGYRRRIAKIAEIVNRISSRIPRRRMRKLHVGLFGYSRGEEIKLPRAITFCASLYSIGLPSEIIGIAEMSDKDYEAVCEVFKNFDGMMESAMSLFNPESLKIVDLSMDFERAKELFGYEPDERHLEKTNEIIKQIDGDIKNLVVEAGILRGFLGEGHHHHHH | not soluble
SNAMKKGTVLNSEISSVISRLGHTDTLVVCDAGLPIPNSTARIDMALTQGVPSFMQVVDVVTREMQVEAAILATEIKQQNPQLHETLLTHLEQLQQHQGNTIKISYTTHEQFKKLTADSQAVIRSGECSPYANVILCAGVTF | soluble
MNDFLNFTQQKREEPQQLVLIKYPGIVKNVDKALQTMGGLQLISQSHFNNHSLELSHTPDNPYTSRIMAERKPQDNVSSGTLHLVMKVRRKKIDPTKIKTSFLGLVNTVYTFDVMCDFQYLPLKKRVGCDTFEDLIPKLIPTDIASALSWWDASESVATPLFLPPYQFSRYLTPSTKILGRETDHTEKTKNAQKKGYGQNLRVERKALSVTVNAKEEFPLEPSQEAVDEAMFRCKHDEPHRLLRELFDERPMWTRMGLLYRTRIDDSLLRSILQKYAFYILSGPWGRLWCKFGYDPRTDRNGGLYQTIMVSFRQHGSIPERQRLKVSSDRAQTINHTADVSEPVTYMYEPGKLPRIRQMWYCVMDVRLPQAMNELVAVVENNTPPTPEEVRDKGWLPNTLLEKIRDLIKEDVARTSAELEGLMNDTAPGEEEF | not soluble
MAHHHHHHMNTSLSNNENENNFFIKSFFESLSNFIKNIKIEIKDTFELLNYPCVYQNSKKKFSVSENEDYKNSLTTNVISKIDKKNIENFRVYQKELHNILQNIKTFNEKYKLDVPLLSIMENLIILHLINEYKINNIVKKIQEHNIPMPELNSDLPDYLIPTLELEENQNESNLNVSISEINNLSINNNAVKHILENAQLKVDFSKLVKLNGENHLNSSSINPSSELNEKSDELTLYKKDDKIHNLTHDIKEEINNERNEDQYLNRSHNNEDEKHTLMTSKKEEKVNLIQNIGLSEETLKLLNLLPKKRKNDQN | not soluble
MYDTEIPYEGKISIYTYFCKECGYRKTEVYSDEKRDPKKITIRIENPDDLRIIVYRSRRADVYIPEMEASIDSAEYSNGEITTIEGIIYRIGEKLDLLAADDQNNKKIASLRKRIDGIINGKFESFTLIIMDESGKSVVHSDKAMVESMD | soluble
